Tested on: T1, SigL (sigma54) (Clostridium beijerinckii NCIMB 8052), ORF:07123114
T1 sequence: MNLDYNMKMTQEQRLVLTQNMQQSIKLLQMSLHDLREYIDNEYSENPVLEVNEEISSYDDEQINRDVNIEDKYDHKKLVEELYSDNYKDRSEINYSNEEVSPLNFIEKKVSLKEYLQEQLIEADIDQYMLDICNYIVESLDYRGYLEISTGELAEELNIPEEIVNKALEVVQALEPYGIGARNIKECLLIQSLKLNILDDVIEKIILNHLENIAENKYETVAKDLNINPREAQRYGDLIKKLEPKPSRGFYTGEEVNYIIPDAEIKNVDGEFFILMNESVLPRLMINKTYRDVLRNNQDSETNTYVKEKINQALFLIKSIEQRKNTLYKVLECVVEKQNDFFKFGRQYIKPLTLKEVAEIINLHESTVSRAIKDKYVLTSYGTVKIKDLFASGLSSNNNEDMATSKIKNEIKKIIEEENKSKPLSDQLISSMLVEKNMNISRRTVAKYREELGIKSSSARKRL
Assay: EMSA
Settings: not stated; EMSA as described previously (ref 21), Cy5-labeled DNA, SigL up to 1500 nM

| Sequence | binding |
| --- | --- |
| AGCCAGTGGCGATAAGCCAGAAAAGAGTAAGATTCTCAAAATAGGACACTAAGTATGTGTCATAATGGCACATAGTGATTTTAAATGTCTTTTTAACAGGTTTCTTGTTTTTGGTATGGCTTTTGCTTATAAAATATAGTGAATATATTAACAGGTATATGTAAATTTTAATATTGCCATACTATTATAAAAAAGGAGAGATAATTCTTATCGCCACTGGCT (double strand) [butA promoter] | binds |
| AGCCAGTGGCGATAAGGGGGAAAATCTTTAAAAGTGTACAAAAAAAACACATATTTTTCTGATTTATTTTATTTAAAAAGGTAAATAGAATTAATAGTAAACAGTTTAAAAAAATAATATTTAAAGAGTTTAGTAGATTTGGAAAAGGTTTTCGACTTTTGGAAAGAAACTTGGCATCCTAATTGCTCTATAAAAAGGTATGAGGAGGGATTATGACTTATCGCCACTGGCT (double strand) [cotX (cotX-gntT) promoter] | binds |
| AGCCAGTGGCGATAAGGGTGTACAAAATATAGACATAAATAAAATTGATATATTTAGGAATTGATTACGAAAACCACAATATATAAGGTTTCATGGAAAAAATATGATTGGCATGCTTATTGCTAATAATAAAATTAACGGGAGTAGTAAGTGAACTAATATATATAACTTAATTTTTCCACAATCTTTAGTGCAATGCTATTTGCTATTTAAGGACTTATCGCCACTGGCT (double strand) [crt (crt-bcd-etfAB-moaC) promoter] | binds |
